In paper PMC8298264, “Function of cofactor Akirin2 in the regulation of gene expression in model human neutrophil-like HL60 cells” (Bioscience Reports, 2021):

B1: sp¦Q9H9B4¦SFXN1_HUMAN (protein, UniProt Q9H9B4 2-322, looked up)
Sideroflexin-1: SGELPPNINIKEPRWDQSTFIGRANHFFTVTDPRNILLTNEQLESARKIVHDYRQGIVPPGLTENELWRAKYIYDSAFHPDTGEKMILIGRMSAQVPMNMTITGCMMTFYRTTPAVLFWQWINQSFNAVVNYTNRSGDAPLTVNELGTAYVSATTGAVATALGLNALTKHVSPLIGRFVPFAAVAAANCINIPLMRQRELKVGIPVTDENGNRLGESANAAKQAITQVVVSRILMAAPGMAIPPFIMNTLEKKAFLKRFPWMSAPIQVGLVGFCLVFATPLCCALFPQKSSMSVTSLEAELQAKIQESHPELRRVYFNKGL
B2: sp¦P10515¦ODP2_HUMAN (protein, UniProt P10515 87-647, looked up)
Dihydrolipoyllysine-residue …: SLPPHQKVPLPSLSPTMQAGTIARWEKKEGDKINEGDLIAEVETDKATVGFESLEECYMAKILVAEGTRDVPIGAIICITVGKPEDIEAFKNYTLDSSAAPTPQAAPAPTPAATASPPTPSAQAPGSSYPPHMQVLLPALSPTMTMGTVQRWEKKVGEKLSEGDLLAEIETDKATIGFEVQEEGYLAKILVPEGTRDVPLGTPLCIIVEKEADISAFADYRPTEVTDLKPQVPPPTPPPVAAVPPTPQPLAPTPSAPCPATPAGPKGRVFVSPLAKKLAVEKGIDLTQVKGTGPDGRITKKDIDSFVPSKVAPAPAAVVPPTGPGMAPVPTGVFTDIPISNIRRVIAQRLMQSKQTIPHYYLSIDVNMGEVLLVRKELNKILEGRSKISVNDFIIKASALACLKVPEANSSWMDTVIRQNHVVDVSVAVSTPAGLITPIVFNAHIKGVETIANDVVSLATKAREGKLQPHEFQGGTFTISNLGMFGIKNFSAIINPPQACILAIGASEDKLVPADNEKGFDVASMMSVTLSCDHRVVDGAVGAQWLAEFRKYLEKPITMLL
B3: sp¦Q53GQ0¦DHB12_HUMAN (protein, UniProt Q53GQ0 1-312, looked up)
Very-long-chain 3-oxoacyl-CoA …: MESALPAAGFLYWVGAGTVAYLALRISYSLFTALRVWGVGNEAGVGPGLGEWAVVTGSTDGIGKSYAEELAKHGMKVVLISRSKDKLDQVSSEIKEKFKVETRTIAVDFASEDIYDKIKTGLAGLEIGILVNNVGMSYEYPEYFLDVPDLDNVIKKMININILSVCKMTQLVLPGMVERSKGAILNISSGSGMLPVPLLTIYSATKTFVDFFSQCLHEEYRSKGVFVQSVLPYFVATKLAKIRKPTLDKPSPETFVKSAIKTVGLQSRTNGYLIHALMGSIISNLPSWIYLKIVMNMNKSTRAHYLKKTKKN
B4: sp¦O95104¦SCAF4_HUMAN (protein, UniProt O95104 1-1147, looked up)
SR-related and CTD-associated …: MDAVNAFNQELFSLMDMKPPISRAKMILITKAAIKAIKLYKHVVQIVEKFIKKCKPEYKVPGLYVIDSIVRQSRHQFGTDKDVFGPRFSKNITATFQYLYLCPSEDKSKIVRVLNLWQKNGVFKIEIIQPLLDMAAGTSNAAPVAENVTNNEGSPPPPVKVSSEPPTQATPNSVPAVPQLPSSDAFAAVAQLFQTTQGQQLQQILQTFQQPPKPQSPALDNAVMAQVQAITAQLKTTPTQPSEQKAAFPPPEQKTAFDKKLLDRFDYDDEPEAVEESKKEDTTAVTTTAPAAAVPPAPTATVPAAAAPAAASPPPPQAPFGFPGDGMQQPAYTQHQNMDQFQPRMMGIQQDPMHHQVPLPPNGQMPGFGLLPTPPFPPMAQPVIPPTPPVQQPFQASFQAQNEPLTQKPHQQEMEVEQPCIQEVKRHMSDNRKSRSRSASRSPKRRRSRSGSRSRRSRHRRSRSRSRDRRRHSPRSRSQERRDREKERERRQKGLPQVKPETASVCSTTLWVGQLDKRTTQQDVASLLEEFGPIESINMIPPRGCAYIVMVHRQDAYRALQKLSRGNYKVNQKSIKIAWALNKGIKADYKQYWDVELGVTYIPWDKVKPEELESFCEGGMLDSDTLNPDWKGIPKKPENEVAQNGGAETSHTEPVSPIPKPLPVPVPPIPVPAPITVPPPQVPPHQPGPPVVGALQPPAFTPPLGIPPPGFGPGVPPPPPPPPFLRPGFNPMHLPPGFLPPGPPPPITPPVSIPPPHTPPISIPNSTIAGINEDTTKDLSIGNPIPTVVSGARGNAESGDSVKMYGSAVPPAAPTNLPTPPVTQPVSLLGTQGVAPGPVIGLQAPSTGLLGARPGLIPLQRPPGMPPPHLQRFPLMPPRPMPPHMMHRGPPPGPGGFAMPPPHGMKGPFPPHGPFVRPGGMPGLGGPGPGPGGPEDRDGRQQPPQQPQQQPQPQAPQQPQQQQQQQPPPSQQPPPTQQQPQQFRNDNRQQFNSGRDQERFGRRSFGNRVENDRERYGNRNDDRDNSNRDRREWGRRSPDRDRHRDLEERNRRSSGHRDRERDSRDRESRREKEEARGKEKPEVTDRAGGNKTVEPPISQVGNVDTASELEKGVSEAAVLKPSEELPAEATSSVEPEKDSGSAAEAPR
B5: sp¦Q9Y5J7¦TIM9_HUMAN (protein, UniProt Q9Y5J7 2-89, looked up)
Mitochondrial import inner …: AAQIPESDQIKQFKEFLGTYNKLTETCFLDCVKDFTTREVKPEETTCSEHCLQKYLKMTQRISMRFQEYHIQQNEALAAKAGLLGQPR
B6: sp¦O75663¦TIPRL_HUMAN (protein, UniProt O75663 1-272, looked up)
TIP41-like protein: MMIHGFQSSHRDFCFGPWKLTASKTHIMKSADVEKLADELHMPSLPEMMFGDNVLRIQHGSGFGIEFNATDALRCVNNYQGMLKVACAEEWQESRTEGEHSKEVIKPYDWTYTTDYKGTLLGESLKLKVVPTTDHIDTEKLKAREQIKFFEEVLLFEDELHDHGVSSLSVKIRVMPSSFFLLLRFFLRIDGVLIRMNDTRLYHEADKTYMLREYTSRESKISSLMHVPPSLFTEPNEISQYLPIKEAVCEKLIFPERIDPNPADSQKSTQVE
B7: sp¦Q15007¦FL2D_HUMAN (protein, UniProt Q15007 1-396, looked up)
Pre-mRNA-splicing regulator …: MTNEEPLPKKVRLSETDFKVMARDELILRWKQYEAYVQALEGKYTDLNSNDVTGLRESEEKLKQQQQESARRENILVMRLATKEQEMQECTTQIQYLKQVQQPSVAQLRSTMVDPAINLFFLKMKGELEQTKDKLEQAQNELSAWKFTPDSQTGKKLMAKCRMLIQENQELGRQLSQGRIAQLEAELALQKKYSEELKSSQDELNDFIIQLDEEVEGMQSTILVLQQQLKETRQQLAQYQQQQSQASAPSTSRTTASEPVEQSEATSKDCSRLTNGPSNGSSSRQRTSGSGFHREGNTTEDDFPSSPGNGNKSSNSSEERTGRGGSGYVNQLSAGYESVDSPTGSENSLTHQSNDTDSSHDPQEEKAVSGKGNRTVGSRHVQNGLDSSVNVQGSVL
B8: sp¦P49588¦SYAC_HUMAN (protein, UniProt P49588 1-968, looked up)
Alanine--tRNA ligase, …: MDSTLTASEIRQRFIDFFKRNEHTYVHSSATIPLDDPTLLFANAGMNQFKPIFLNTIDPSHPMAKLSRAANTQKCIRAGGKHNDLDDVGKDVYHHTFFEMLGSWSFGDYFKELACKMALELLTQEFGIPIERLYVTYFGGDEAAGLEADLECKQIWQNLGLDDTKILPGNMKDNFWEMGDTGPCGPCSEIHYDRIGGRDAAHLVNQDDPNVLEIWNLVFIQYNREADGILKPLPKKSIDTGMGLERLVSVLQNKMSNYDTDLFVPYFEAIQKGTGARPYTGKVGAEDADGIDMAYRVLADHARTITVALADGGRPDNTGRGYVLRRILRRAVRYAHEKLNASRGFFATLVDVVVQSLGDAFPELKKDPDMVKDIINEEEVQFLKTLSRGRRILDRKIQSLGDSKTIPGDTAWLLYDTYGFPVDLTGLIAEEKGLVVDMDGFEEERKLAQLKSQGKGAGGEDLIMLDIYAIEELRARGLEVTDDSPKYNYHLDSSGSYVFENTVATVMALRREKMFVEEVSTGQECGVVLDKTCFYAEQGGQIYDEGYLVKVDDSSEDKTEFTVKNAQVRGGYVLHIGTIYGDLKVGDQVWLFIDEPRRRPIMSNHTATHILNFALRSVLGEADQKGSLVAPDRLRFDFTAKGAMSTQQIKKAEEIANEMIEAAKAVYTQDCPLAAAKAIQGLRAVFDETYPDPVRVVSIGVPVSELLDDPSGPAGSLTSVEFCGGTHLRNSSHAGAFVIVTEEAIAKGIRRIVAVTGAEAQKALRKAESLKKCLSVMEAKVKAQTAPNKDVQREIADLGEALATAVIPQWQKDELRETLKSLKKVMDDLDRASKADVQKRVLEKTKQFIDSNPNQPLVILEMESGASAKALNEALKLFKMHSPQTSAMLFTVDNEAGKITCLCQVPQNAANRGLKASEWVQQVSGLMDGKGGGKDVSAQATGKNVGCLQEALQLATSFAQLRLGDVKN
B9: sp¦Q96JJ7¦TMX3_HUMAN (protein, UniProt Q96JJ7 25-454, looked up)
Protein disulfide-isomerase …: KGFVEDLDESFKENRNDDIWLVDFYAPWCGHCKKLEPIWNEVGLEMKSIGSPVKVGKMDATSYSSIASEFGVRGYPTIKLLKGDLAYNYRGPRTKDDIIEFAHRVSGALIRPLPSQQMFEHMQKRHRVFFVYVGGESPLKEKYIDAASELIVYTYFFSASEEVVPEYVTLKEMPAVLVFKDETYFVYDEYEDGDLSSWINRERFQNYLAMDGFLLYELGDTGKLVALAVIDEKNTSVEHTRLKSIIQEVARDYRDLFHRDFQFGHMDGNDYINTLLMDELTVPTVVVLNTSNQQYFLLDRQIKNVEDMVQFINNILDGTVEAQGGDSILQRLKRIVFDAKSTIVSIFKSSPLMGCFLFGLPLGVISIMCYGIYTADTDGGYIEERYEVSKSENENQEQIEESKEQQEPSSGGSVVPTVQEPKDVLEKKKD
B10: sp¦Q09161¦NCBP1_HUMAN (protein, UniProt Q09161 1-790, looked up)
Nuclear cap-binding protein …: MSRRRHSDENDGGQPHKRRKTSDANETEDHLESLICKVGEKSACSLESNLEGLAGVLEADLPNYKSKILRLLCTVARLLPEKLTIYTTLVGLLNARNYNFGGEFVEAMIRQLKESLKANNYNEAVYLVRFLSDLVNCHVIAAPSMVAMFENFVSVTQEEDVPQVRRDWYVYAFLSSLPWVGKELYEKKDAEMDRIFANTESYLKRRQKTHVPMLQVWTADKPHPQEEYLDCLWAQIQKLKKDRWQERHILRPYLAFDSILCEALQHNLPPFTPPPHTEDSVYPMPRVIFRMFDYTDDPEGPVMPGSHSVERFVIEENLHCIIKSHWKERKTCAAQLVSYPGKNKIPLNYHIVEVIFAELFQLPAPPHIDVMYTTLLIELCKLQPGSLPQVLAQATEMLYMRLDTMNTTCVDRFINWFSHHLSNFQFRWSWEDWSDCLSQDPESPKPKFVREVLEKCMRLSYHQRILDIVPPTFSALCPANPTCIYKYGDESSNSLPGHSVALCLAVAFKSKATNDEIFSILKDVPNPNQDDDDDEGFSFNPLKIEVFVQTLLHLAAKSFSHSFSALAKFHEVFKTLAESDEGKLHVLRVMFEVWRNHPQMIAVLVDKMIRTQIVDCAAVANWIFSSELSRDFTRLFVWEILHSTIRKMNKHVLKIQKELEEAKEKLARQHKRRSDDDDRSSDRKDGVLEEQIERLQEKVESAQSEQKNLFLVIFQRFIMILTEHLVRCETDGTSVLTPWYKNCIERLQQIFLQHHQIIQQYMVTLENLLFTAELDPHILAVFQQFCALQA

Tested on: human HL60 cells
Experiment: SWATH-MS proteomics, differential protein representation, akirin2 KO vs WT HL60 cells
Type: cell-based
Settings: KO vs WT; akirin2 KO vs WT HL60 cells; sheet "Under-represented in KO"
In short: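 Three biological replicates per genotype; 150 µg protein FASP/trypsin digested; IDA library (3 µg digest); SWATH variable windows, 5 µg/sample, 3.6 s cycle; gradient 5–30% B 120 min then 30–60% B 15 min; 1% global FDR; TAS normalization.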

| Molecule | Fold Change | Log (Fold Change) |
| --- | --- | --- |
| B1 | 0.5707 | -0.2436 |
| B2 | 0.571 | -0.2434 |
| B3 | 0.5753 | -0.2401 |
| B4 | 0.586 | -0.2321 |
| B5 | 0.5881 | -0.2305 |
| B6 | 0.5915 | -0.228 |
| B7 | 0.593 | -0.227 |
| B8 | 0.5997 | -0.2221 |

Same assay, conditions: akirin2 KO vs WT HL60 cells; sheet "Under-represented in KO"

| Molecule | Fold Change | Log (Fold Change) |
| --- | --- | --- |
| B9 | 0.267 | -0.5736 |
| B10 | 0.2701 | -0.5684 |
